Test results taken from US20190030180A1.

Molecular target: human AXL (full length) (human) (UniProt P30530)
Experiment: flow cytometry; A431 cells pre-incubated with 10 µg/mL Gas6

Sequence of UniProt P30530 (P30530 26-894 limits assumed): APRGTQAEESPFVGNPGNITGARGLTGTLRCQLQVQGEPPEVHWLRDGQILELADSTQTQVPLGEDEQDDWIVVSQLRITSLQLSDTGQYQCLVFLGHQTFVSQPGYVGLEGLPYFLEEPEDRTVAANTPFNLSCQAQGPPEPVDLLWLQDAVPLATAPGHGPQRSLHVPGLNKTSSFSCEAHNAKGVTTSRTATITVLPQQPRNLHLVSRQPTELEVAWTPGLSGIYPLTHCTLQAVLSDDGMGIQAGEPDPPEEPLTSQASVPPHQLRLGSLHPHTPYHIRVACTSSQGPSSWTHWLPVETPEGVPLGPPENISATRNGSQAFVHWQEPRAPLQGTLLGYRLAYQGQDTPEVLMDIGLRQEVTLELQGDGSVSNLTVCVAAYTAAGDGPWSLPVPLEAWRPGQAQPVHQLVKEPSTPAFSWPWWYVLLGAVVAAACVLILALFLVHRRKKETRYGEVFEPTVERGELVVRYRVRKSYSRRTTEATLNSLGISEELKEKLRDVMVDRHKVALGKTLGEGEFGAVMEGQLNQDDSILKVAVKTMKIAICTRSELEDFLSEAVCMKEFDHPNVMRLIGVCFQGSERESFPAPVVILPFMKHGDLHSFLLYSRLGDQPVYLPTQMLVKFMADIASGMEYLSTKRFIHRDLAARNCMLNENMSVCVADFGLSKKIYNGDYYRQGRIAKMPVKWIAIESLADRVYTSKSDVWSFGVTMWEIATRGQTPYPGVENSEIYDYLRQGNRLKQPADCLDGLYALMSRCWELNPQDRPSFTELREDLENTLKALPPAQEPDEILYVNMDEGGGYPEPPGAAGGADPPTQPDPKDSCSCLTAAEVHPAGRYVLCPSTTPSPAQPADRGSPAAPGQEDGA

fold change of EC50 with Gas6 pre-incubation against without Gas6: 21 fold
maximal binding in presence of Gas6 (% of binding in absence of Gas6): 19%
B1: IgG1-YW327.6S2 (antibody, from another filing, V domains shown)
VH: EVQLVESGGGLVQPGGSLRLSCAASGFSLSGSWIHWVRQAPGKGLEWVGWINPYRGYAYYADSVKGRFTISADTSKNTAYLQMNSLRAEDTAVYYCAREYSGWGGSSVGYAMDYWGQGTLVTVSS
VL: DIQMTQSPSSLSASVGDRVTITCRASQDVSTAVAWYQQKPGKAPKLLIYSASFLYSGVPSRFSGSGSGTDFTLTISSLQPEDFATYYCQQSYTTPPTFGQGTKVEIK
